The term stoichiometry N denotes the number of molecules, sites or subunits per partner or assembly. In general, Km refers to the concentration of substrate that gives half-maximal velocity. The Vmax is the top rate of the reaction or transport when substrate is in excess. In general, kcat refers to the number of substrate molecules converted per active site and unit of time at saturation. Usually kcat/Km stands for the second-order rate constant that governs catalysis at low substrate concentration.

Here are results for three molecules from PMC9769727, “Glucose-6-Phosphate Dehydrogenase, ZwfA, a Dual Cofactor-Specific Isozyme Is Predominantly Involved in the Glucose Metabolism of Pseudomonas bharatica CSV86^T” (Microbiology Spectrum, 2022).

Data set [1] deals with Glucose-6-phosphate dehydrogenase ZwfA from Pseudomonas bharatica CSV86T (Pseudomonas bharatica CSV86T). Kind of data set: SEC; ENrich SEC 650 column (CV 24 mL, Bio-Rad) in Buffer A (Tris-Cl 50 mM, pH 7.5), 4°C; native molecular weight from a semilog plot of Ve/V0 against standard proteins, compared with the subunit weight by SDS-PAGE. (In general: Size exclusion chromatography separates by hydrodynamic size, large species first.)

The target in data set [2] is Glucose-6-phosphate dehydrogenase ZwfC from Pseudomonas bharatica CSV86T (Pseudomonas bharatica CSV86T). Kind of data set: SEC; Superdex 200 Increase 10/300 GL column (CV 24 mL, GE Healthcare) in Buffer A (Tris-Cl 50 mM, pH 7.5), 4°C; native molecular weight from a semilog plot of Ve/V0 against standard proteins, compared with the subunit weight by SDS-PAGE.
Substrate in data set [3]: NC(=O)c1ccc[n+]([C@@H]2O[C@H](COP(=O)(O)OP(=O)(O)OC[C@H]3O[C@@H](n4cnc5c(N)ncnc54)[C@H](O)[C@@H]3O)[C@@H](O)[C@H]2O)c1
Kind of data set: purified protein. Format: biochemical, Pseudomonas bharatica. The following applies: 5 mM G6P fixed, Tris-Cl 50 mM, pH 8.25, hyperbolic.

Substrate in data set [4]: NC(=O)c1ccc[n+]([C@@H]2O[C@H](COP(=O)(O)OP(=O)(O)OC[C@H]3O[C@@H](n4cnc5c(N)ncnc54)[C@H](OP(=O)(O)O)[C@@H]3O)[C@@H](O)[C@H]2O)c1
The data set can be described thus: purified protein. Format: biochemical, Pseudomonas bharatica. The following applies: 5 mM G6P fixed, Tris-Cl 50 mM, pH 8.25, hyperbolic.

Molecule “Glucose-6-phosphate dehydrogenase ZwfA from Pseudomonas bharatica CSV86T (enzyme)” had a stoichiometry N in data set [1] of 4.

“Glucose-6-phosphate dehydrogenase ZwfC from Pseudomonas bharatica CSV86T (enzyme)” displayed a stoichiometry N in data set [2] of 4.

B1: ZwfA (Pseudomonas bharatica CSV86) (protein)
chain: MSSISVEPCTFALFGALGDLALRKLFPALYQLDRAGLLHERTRLLALAREPGSVQEHLASIEAHLHEFVASDTLDTTVLQRFLGRLNYLHMDFLDAQAYPALAAQVTPEAPLIAYFATPAAVYGGICENLAKVGLAERTRVVLEKPIGHDLESSRRVNDAVAQFFPENRIYRIDHYLGKETVQNLIALRFANSLFETQWNQTSISHVEISVAEKVGIEGRWGYFDKAGQLRDMIQNHLLQLLCLIAMDPPSDLSADSIRDEKVKVLKALAPITGEGLGTRVVRGQYIAGHSDGRALPGYLDEENANTHSDTETFVALRADIRNWRWAGVPFYLRTGKRMPQKLSQIVIHFKEPQHYIFAAEQRLQIGNKLIIRLQPDEGISLRVMTKEQGLDKGMQLRSSPLQLNFSDGSFRSARIPDAYERLLLEVMRGNQNLFVRKDEIEYAWKWCDQLIAGWKQSGEAPRPYAAGTWGPVAAVALITRDGRSWYGDI
notes: full length, 490 aa (1473 nt), pET28a N-terminal 6xHis tag, E. coli BL21(DE3), Ni-NTA; subunit ~56 kDa, homotetramer ~217 kDa; part of zwfA-pgl-eda operon; Arg49, Leu17
Regarding B1, in “purified protein [3]”, the Michaelis-Menten constant (Km) was 366 ± 70 µM, the maximal velocity (Vmax) amounted to 329 ± 74 µmol/min/mg, the turnover number (kcat) came to 306 ± 69 s⁻¹ and the catalytic efficiency (kcat/Km) came out at 860000 ± 150000 M⁻¹ s⁻¹. Moreover, in “purified protein [4]”, the Km amounted to 110.5 ± 20 µM, the Vmax was found to be 201 ± 28 µmol/min/mg, the kcat stood at 187 ± 26 s⁻¹ and the kcat/Km is 1.7e+06 ± 300000 M⁻¹ s⁻¹.
